1 substance from publication PMC9744130 can be followed below.

For orientation: stoichiometry N means the number of molecules, sites or subunits per partner or assembly.

The target of the experiment is BtAAV-10HB capsid viral proteins (VP1, VP2, VP3) assembled as the capsid (bat adeno-associated virus BtAAV-10HB). As to the kind of experiment: cryo-EM structure.

In the case of “BtAAV-10HB capsid viral proteins (VP1, VP2, VP3) assembled as the capsid (complex)”, the stoichiometry N was determined as 60.
